Experimental data from patent publication US20220169693A1, “Screening Assays, Modulators and Modulation of Intracellular Signalling Mediated by Immunoglobulin Superfamily Cell Adhesion Molecules” (Monash University, priority 2018, published 2022).

Legend:
[1] = molecular target: T1, cytosolic tail of ALCAM, ALCAM551-583 (Homo sapiens, UniProt Q13740); assay: Ang II-induced ICAM-1 expression in ARPE cells transfected with cytosolic tail of ALCAM; type: cell-based; conditions: Ang II 1 μM, treatment with oligopeptide (FIG. 2C)
T1 construct: corresponds to residues 551-583 of ALCAM, with initial Methionine already present; expressed in transfected cells; host or cells: human ARPE (adult retinal pigment epithelial) cells; insert in pCIneo
T1 sequence (Q13740 551-583 limits assumed): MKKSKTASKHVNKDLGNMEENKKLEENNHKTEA
Method: (§1) Adult retinal pigment epithelial (ARPE) cells were cultured in Dulbecco's modified Eagle's medium (DMEM)/F12 endothelial cell growth supplement (ECGS) supplemented media. Chinese Hamster Ovary (CHO) cells were cultured using F12 media (10% FCS with 2 mM glutamine). Human microvascular endothelial cells (HMEC) were cultured in MCDB 131 medium (10% FCS with 10 mM glutamine, EGF and hydrocortisone).
(§2) Oligonucleotides were designed and ordered to generate the ALCAM, BCAM and MCAM intracellular (cytosolic) domains. These included a 5′ NheI site, Kozak sequence and initiating Methionine and then DNA sequences corresponding to ALCAM residues 552-583, BCAM residues 569-628 and MCAM residues 584-637 respectively (Note that as residue 551 of ALCAM is Methionine, the cytosolic tail of ALCAM effectively corresponded to residues 551-583). […]
(§3) After 2 hours of exposure to Ang II (1 μM) cells were placed in Trizol, mRNA extracted and cDNA synthesized. Changes in the gene expression of the NFκB subunit, p65 (RelA) or NFκB-activated target genes (e.g ICAM-1) were estimated by quantitative real-time RT-PCR, performed using the TaqMan system based on real-time detection of accumulated fluorescence (ABI Prism 7700, Perkin-Elmer Inc, PE Biosystems, Foster City, Calif., USA). […]

[2] = molecular target: T2, cytosolic tail of BCAM, BCAM569-628 (Homo sapiens, UniProt P50895); assay: Ang II-induced ICAM-1 expression in ARPE cells transfected with cytosolic tail of BCAM; type: cell-based; parameters: corresponds to residues 569-628 of BCAM plus an initiating Methionine; initiating Methionine (N); expressed in transfected cells; host or cells: human ARPE (adult retinal pigment epithelial) cells; insert in pCIneo; conditions: Ang II 1 μM, treatment with oligopeptide (FIG. 2C)
T2 sequence (P50895 with tags, fused parts or gaps): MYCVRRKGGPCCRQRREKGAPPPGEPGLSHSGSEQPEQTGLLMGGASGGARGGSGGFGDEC
Method: as §1, §2, §3

MLWQRRQRRGEERKAPENQEEEEERAELNQAEEPEAGESSTGGP (Synthetic peptide - Truncated amino acid sequence of human RAGE protein corresponding to residues 362 to 404 of human RAGE protein with a mutation of Serine 391 to Alanine plus an initiating methionine residue) [S391A-RAGE362-404, entire cytosolic tail of RAGE with serine391 mutated to alanine]
proinflammatory signalling (ICAM-1) induced by Ang II mediated by the cytosolic tail of ALCAM [1]: inhibited | NFKB-dependent induction of ICAM-1 gene expression by Ang II via BCAM569-628 [2]: inhibited
